The test system of one data set is B. pertussis LPS. Nature of the data set: Expression of PagL and PagP in B. pertussis strain Tohama, lipid A analysed by ESI-MS and Tricine-SDS-PAGE. Conditions: for relative abundance of lipid A molecular ions: palmitoylate: Table III total of palmitoylated species. Format: cell-based. As for the experimental part: LPS was isolated using the hot phenol/water extraction method (Westphal and Jann, Methods Carbohydr. Chem. 5; 83-91, 1965) with slight modifications. In short, bacteria were grown in THIJS medium in the presence of 1 mM IPTG (end concentration) for 64 h. Cells were harvested by centrifugation and resuspended in 40 mM sodium phosphate buffer (pH 7.0) containing 5 mM EDTA. The cells were treated overnight with lysozyme at 4° C., after which an equal volume of phenol was added. The suspension was heated to 70° C., incubated for 30 min while shaking, and subsequently cooled to 10° C., after which phases were separated by centrifugation for 10 min at 8,000×g. The upper phase was collected and the extraction was repeated after adding an equal volume of distilled water to the lower phase. The two upper phases were combined, dialysed against tap water until the phenol odour disappeared, freeze-dried, and subsequently taken up in distilled water. The LPS was subsequently pelleted by centrifugation for 3 h at 150,000×g and dissolved in distilled water, after which the LPS concentration was determined by analysing the 3-hydroxytetradecanoic acid content, using a 6890 Agilent gas chromatograph, as described (Welch, Clin. Microbiol. Rev. 1991). For ESI-MS, a 200 μl aliquot of isolated LPS (50 nmol/ml) was freeze-dried and taken up in 0.1 ml 2% acetic acid. The mixture was heated for 2 h at 95° C. to hydrolyse the LPS and release the lipid A moiety. Subsequently, the mixture was cooled to room temperature and centrifuged for 10 min at 16,100×g. The pellet was washed twice in 0.1 ml double-distilled water, taken up in 0.1 ml double-distilled water, and 0.3 ml chloroform/methanol (2:1, v/v) was added. After vigorous vortexing, phases were separated by centrifugation for 10 min at 16,100×g. The […] phase was then used for structural analysis of purified lipid A by nanoelectrospray tandem MS on a Finnigan LCQ in the negative ion mode (Wilm and Mann, Anal. Chem. 1996).
To express PagP and PagL in B. pertussis strain Tohama, the pagL gene of B. bronchiseptica (pagL(Bb)) and the pagP gene of B. pertussis (pagP(Bp)) were expressed from the broad-host range low-copy number expression vector pMMB67EH. As a control, a strain expressing the pagP gene of E. coli (pagP(Ec)) was also constructed. LPS was isolated from wild-type, PagP-expressing, or PagL-expressing B. pertussis strain Tohama and analysed by Tricine-SDS-PAGE. LPS isolated from the PagL(Bb)-expressing strain appeared unaffected on the gel, whereas that from the PagP-expressing appeared potentially modified, since a band with a lower electrophoretic mobility than that of wild-type B. pertussis LPS was detected (FIG. 14). Furthermore, as compared to the PagP(Bp)-expressing strain, the modification-efficiency appeared higher in the PagP(Ec)-expressing strain (FIG. 14). To evaluate the possible LPS modifications in further detail, the lipid A moieties of the strains were analysed by ESI-MS in the negative-ion mode. […] The peak at m/z 1557 represents the characteristic penta-acylated bis-phosphate species that is typically found in B. pertussis (Caroff et al., Microbes. Infect., 1994), whereas the peak at m/z 1477 corresponds to a penta-acylated mono-phosphate species. The two remaining peaks at m/z 1307 and 1251 represent deacylated lipid A species of the molecular ion at m/z 1477, which miss the primary 3-hydroxydecanoic acid residue at the 3 position or a primary 3-hydroxytetradecanoic acid residue (either at the 2 or the 3′ position), respectively. […] Furthermore, the large majority of lipid A species are mono-phosphate forms (˜80%). […]

A further data set relates to E. coli LPS. Nature of the data set: In vivo modification of E. coli LPS by PagL expressed in E. coli BL21 Star (DE3) (Tricine-SDS-PAGE, GC/MS, ESI-MS). Format: cell-based. The note with it: GC/MS and ESI-MS data. As for the experimental part:
To LPS-containing samples 0.5 mg/ml proteinase K (end concentration) was added to the sample buffer (28). The samples were incubated for 60 min at 55° C., followed by 10 min at 95° C. to inactivate proteinase K. The samples was then diluted 10 fold by adding sample buffer, after which 2 μl of the sample were applied to a Tricine-SDS-PAGE gel (30). The bromophenol blue was allowed to run into the separating gel at 35 V, after which the voltage was increased to 105 V. After the front reached the bottom of the gel, the samples were left running for another 45 min. The gels were fixed overnight in water/ethanol/acetic acid 11:8:1 (v/v/v) and subsequently stained with silver as described (31).
LPS was isolated using the hot phenol/water extraction method (3). […]
To study whether the cloned PagL homologs were active on E. coli LPS, IPTG was added to exponentially growing E. coli BL21 Star™ (DE3) cells containing the empty vector pET-11a or the pPagL plasmids, and after various incubation periods, samples equivalent to one OD600 unit were collected and their LPS content was analyzed by Tricine-SDS-PAGE. […]
Structural Analysis of PagL-Modified LPS: to determine its fatty acid content, LPS was isolated from bacteria that were grown in the presence of 10 mM MgCl2 to suppress PhoP/PhoQ-regulated modifications of lipid A and analyzed by GC/MS. […]

Data set [1] can be described thus: In vitro modification assay with refolded or membrane-localized PagL (Tricine-SDS-PAGE). The note with it: purified N. meningitidis LPS. The class given is biochemical. As for the experimental part: Refolded PagL(Pa)(−) (10 mg/ml) or cell envelopes isolated from E. coli BL21 Star™ (DE3) containing the empty vector pET-11a or the pPagL plasmids were diluted 10 fold in double distilled water. 4 μl of the diluted refolded protein or cell envelope solution was incubated in 50 mM Hepes (pH 8.0), 0.1% Triton X-100, 0.5 M NaCl, and 0.75 nmol N. meningitidis L3-LPS in a final volume of 10 μl at 37° C. for 16 h. To test whether the reaction was dependent on divalent cations, 5 mM EDTA was added into the reaction with the refolded PagL(Pa)(−). The reactions were terminated by boiling in sample buffer (28), after which the samples were treated with 0.5 mg/ml proteinase K for 1 hour at 55° C., followed by 10 min incubation at 95° C. The samples were diluted 25 fold by adding sample buffer, after which 2 μl of the samples were analysed by Tricine-SDS-PAGE (see above).

[2] abbreviates: B. pertussis strain Tohama, ESI-MS.

B1: PagP(Ec): palmitoyl transferase PagP of E. coli, expressed in B. pertussis as a control (protein, UniProt P37001 26-186, looked up)
Lipid A palmitoyltransferase …: NADEWMTTFRENIAQTWQQPEHYDLYIPAITWHARFAYDKEKTDRYNERPWGGGFGLSRWDEKGNWHGLYAMAFKDSWNKWEPIAGYGWESTWRPLADENFHLGLGFTAGVTARDNWNYIPLPVLLPLASVGYGPVTFQMTYIPGTYNNGNVYFAWMRFQF
B1: the “share of the total lipid A population palmitoylated” value with B. pertussis LPS (B. pertussis strain Tohama expressing PagP, ESI-MS) is listed as roughly 47%. For the same molecule, the “relative abundance of lipid A molecular ions: palmitoylate” value with B. pertussis LPS (setting [2]) was determined as 46.5. For the same molecule, the modification-efficiency entry with B. pertussis LPS (Tricine-SDS-PAGE of B. pertussis LPS, compared to the PagP(Bp)-expressing strain, FIG. 14) is “higher”.

B2: PagL(Pa): PagL homolog (lipid A 3-O-deacylase) of P. aeruginosa, SEQ ID No:6 (protein, listed as Pseudomonas aeruginosa)
chain: MKKLLPLAVLAALSSVHVASAQAADVSAAVGATGQSGMTYRLGLSWDWDKSWWQTSTGRLTGYWDAGYTYWEGGDEGAGKHSLSFAPVFVYEFAGDSIKPFIEAGIGVAAFSGTRVGDQNLGSSLNFEDRIGAGLKFANGQSVGVRAIHYSNAGLKQPNDGIESYSLFYKIPI
In the case of B2, the “lipid A deacylase activity” value in the data set on E. coli LPS was “active lipid A deacylases”.

B3: PagL(Pa)(−): P. aeruginosa PagL without its signal sequence, refolded in vitro from inclusion bodies and purified (protein, UniProt Q9HVD1 24-173, looked up)
Lipid A deacylase PagL: ADVSAAVGATGQSGMTYRLGLSWDWDKSWWQTSTGRLTGYWDAGYTYWEGGDEGAGKHSLSFAPVFVYEFAGDSIKPFIEAGIGVAAFSGTRVGDQNLGSSLNFEDRIGAGLKFANGQSVGVRAIHYSNAGLKQPNDGIESYSLFYKIPI
Take B3: in data set [1] (5 mM EDTA, FIG. 13B), the “in vitro deacylation of LPS in the presence of EDTA” value was “deacylation of LPS was still observed”. In data set [1] (37° C., detergent-containing buffer, FIG. 13), the “in vitro modification of externally added LPS” value is listed as “converted into a form with a higher electrophoretic mobility”.

B4: PagL(Bb): lipid A 3-O-deacylase PagL of B. bronchiseptica, SEQ ID No. 1 (protein, listed as Bordetella sp.)
chain: MQFLKKNKPLFGIVTLALACATAQAQPTQGGVSLHYGIGDHYQRVTLNYETPTLWSHQFGGNWGRLDLTPELGASYWWADGSRSPGHVWQASAIPMFRWWTGERFYIEAGIGATVFSSTSFADKRIGSAFQFGDHIGLGFLLTPSNRIGLRYSHFSNAGIKEPNPGLDIVQLTYTYQF
For B4, the “lipid A deacylase activity” value with E. coli LPS is “active lipid A deacylases”. Moreover, the “relative content of lipid A species that miss the 3-hydroxydecanoic acid residue at their 3 position” value with B. pertussis LPS (B. pertussis strain Tohama, ESI-MS peak heights) is listed as “more than 92%”. The “relative abundance of lipid A molecular ions: palmitoylate” value in the data set on B. pertussis LPS (setting [2]) was 0.0. In addition, the “lipid A 3-O-deacylase activity in B. pertussis” value with B. pertussis LPS (B. pertussis strain Tohama, pMMB67EH expression, ESI-MS) is reported as “active in B. pertussis”.

The record behind these values is patent US8048433B2, “Deacylation of LPS in gram negative bacteria” (priority 2004, dated 2011).
